B1: DNA repair protein RAD9 (Saccharomyces cerevisiae), P14737 (parent)
chain: MSGQLVQWKSSPDRVTQSAIKEALHSPLADGDMNEMNVPVDPLENKVNSTNIIEGSPKANPNPVKFMNTSEIFQKSLGLLDESPRHDDELNIEVGDNDRPNANILHNERTPDLDRIANFFKSNRTPGKENLLTKYQSSDLEDTPLMLRKKMTFQTPTDPLEQKTFKKLKSDTGFCYYGEQNDGEENASLEVTEADATFVQMAERSADNYDCALEGIVTPKRYKDELSKSGGMQDERVQKTQIMISAESPNSISSYDKNKITGNGRTTRNVNKVFNNNEDNIGAIEEKNPVKKKSENYSSDDLRERNNQIIQSNESEEINELEKNLNVSGRENDVNNLDIDINSAVSGTPSRNNAEEEMYSSESVNNREPSKKWIFRYSKDKTENNSNRSTQIVNNPRTQEMPLDSISIDTQPLSKSFNTETNNELETQIIVSSLSQGISAQKGPVFHSTGQTEEIKTQIINSPEQNALNATFETPVTLSRINFEPILEVPETSSPSKNTMSKPSNSSPIPKEKDTFNIHEREVETNNVFSNDIQNSSNAATRDDIIIAGSSDFNEQKEITDRIYLQLSGKQISDSGSDETERMSPNELDTKKESTIMSEVELTQELPEVEEQQDLQTSPKKLVVEEETLMEIKKSKGNSLQLHDDNKECNSDKQDGTESLDVALIEHESKGQSSELQKNLMQLFPSESQEIIQNRRTIKRRQKDTIEIGEEEENRSTKTSPTKHLKRNSDLDAASIKREPSCSITIQTGETGSGKDSKEQSYVFPEGIRTADNSFLSKDDIIFGNAVWCQYTWNYKFYPGILLEVDTNQDGCWIYFETGRSLTKDEDIYYLDIRIGDAVTFDGNEYVVVGLECRSHDLNIIRCIRGYDTVHLKKKNASGLLGKRTLIKALSSISLDLSEWAKRAKIILEDNEKNKGDAYRYLRHPIRGRKSMTNVLSPKKHTDDEKDINTHTEVYNNEIESSSEKKEIVKKDSRDALAEHAGAPSLLFSSGEIRTGNVFDKCIFVLTSLFENREELRQTIESQGGTVIESGFSTLFNFTHPLAKSLVNKGNTDNIRELALKLAWKPHSLFADCRFACLITKRHLRSLKYLETLALGWPTLHWKFISACIEKKRIVPHLIYQYLLPSGESFRLSLDSPSKGGIIKSNNIFSFYTQFLRGSNLRDQICGVKKMLNDYIVIVWGRSELDSFVKFAFACLSAGRMLTIDLPNIDVDDTEPLLNALDSLVPRIGSELSNRKLKFLIYANENNGKSQMKLLERLRSQISLKFKKFNYIFHTESKEWLIQTIINEDTGFHDDITDNDIYNTISEVR
partner: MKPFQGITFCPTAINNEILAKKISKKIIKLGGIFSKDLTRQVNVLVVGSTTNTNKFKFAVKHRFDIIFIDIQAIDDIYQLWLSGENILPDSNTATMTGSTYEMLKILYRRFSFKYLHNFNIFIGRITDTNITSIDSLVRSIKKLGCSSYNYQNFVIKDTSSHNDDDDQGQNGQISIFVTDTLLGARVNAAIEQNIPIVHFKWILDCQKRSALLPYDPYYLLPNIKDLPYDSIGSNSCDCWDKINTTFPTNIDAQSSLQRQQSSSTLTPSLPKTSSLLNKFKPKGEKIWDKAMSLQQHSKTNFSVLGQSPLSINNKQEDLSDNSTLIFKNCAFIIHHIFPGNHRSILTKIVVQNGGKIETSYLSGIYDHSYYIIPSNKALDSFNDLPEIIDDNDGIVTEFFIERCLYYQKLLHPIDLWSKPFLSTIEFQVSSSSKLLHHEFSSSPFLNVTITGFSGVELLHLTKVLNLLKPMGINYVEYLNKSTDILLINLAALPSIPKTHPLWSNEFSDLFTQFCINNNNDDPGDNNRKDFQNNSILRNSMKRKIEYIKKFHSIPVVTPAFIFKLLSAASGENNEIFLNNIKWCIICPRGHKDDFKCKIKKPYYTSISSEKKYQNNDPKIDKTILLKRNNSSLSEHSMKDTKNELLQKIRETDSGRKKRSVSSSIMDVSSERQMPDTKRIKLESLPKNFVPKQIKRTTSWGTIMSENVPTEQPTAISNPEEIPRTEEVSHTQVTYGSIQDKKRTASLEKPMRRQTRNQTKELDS
B2: DNA replication regulator DPB11 (Saccharomyces cerevisiae), P47027 (parent)
chain: B1 partner
partner: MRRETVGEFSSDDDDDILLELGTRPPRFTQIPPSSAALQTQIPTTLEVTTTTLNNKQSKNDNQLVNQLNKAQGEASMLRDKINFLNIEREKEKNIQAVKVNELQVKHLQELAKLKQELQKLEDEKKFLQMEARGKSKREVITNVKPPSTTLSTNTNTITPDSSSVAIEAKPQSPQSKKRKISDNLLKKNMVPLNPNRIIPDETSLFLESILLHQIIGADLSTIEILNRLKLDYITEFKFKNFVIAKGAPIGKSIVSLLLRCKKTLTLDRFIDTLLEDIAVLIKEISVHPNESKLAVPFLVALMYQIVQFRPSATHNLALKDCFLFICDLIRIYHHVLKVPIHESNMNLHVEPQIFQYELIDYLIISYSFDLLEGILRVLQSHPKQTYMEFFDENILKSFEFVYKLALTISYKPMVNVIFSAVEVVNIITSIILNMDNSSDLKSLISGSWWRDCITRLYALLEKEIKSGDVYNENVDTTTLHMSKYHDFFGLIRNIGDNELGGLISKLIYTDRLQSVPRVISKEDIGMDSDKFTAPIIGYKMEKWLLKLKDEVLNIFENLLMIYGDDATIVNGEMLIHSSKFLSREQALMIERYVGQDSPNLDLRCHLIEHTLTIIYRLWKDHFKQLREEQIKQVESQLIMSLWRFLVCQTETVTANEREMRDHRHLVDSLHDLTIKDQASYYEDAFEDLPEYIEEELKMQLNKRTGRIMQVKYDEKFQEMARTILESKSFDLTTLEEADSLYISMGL

In one assay the parent is B1. The conditions noted are these: with dpb11_yeast DPB11, P47027.
On to S462A, for which the “effect of a mutation on the interaction” value was “disrupting interaction”.

In the case of T474A, the “effect of a mutation on the interaction” value is “disrupting interaction”.

Another assay covers variants of B1. The conditions noted are these: with dpb11_yeast DPB11, P47027. The source holds these as a separate data set.
As to T474A, the “effect of a mutation on the interaction” value is on record as “decreasing interaction”.

Variants of B2 are the subject of the next assay. The conditions noted are these: with lcd1_yeast LCD1, Q04377.
Turning to Y735A, the “effect of a mutation on the interaction” value is listed as “decreasing interaction”.

Take G736A: the “effect of a mutation on the interaction” value was “decreasing interaction”.

The variants in another assay derive from B2. The conditions noted are these: with lcd1_yeast LCD1, Q04377. The source holds these as a separate data set.
As to W700A, the “effect of a mutation on the interaction” value was “disrupting interaction”.

G701A: the “effect of a mutation on the interaction” value is listed as “disrupting interaction”.

The next assay covers variants of B2. The conditions noted are these: with lcd1_yeast LCD1, Q04377. This is another data set of the same source.
For G701A, the “effect of a mutation on the interaction” value is given as “decreasing interaction”.

(Values after IntAct's records for PubMed 21946560.)
